Literature values in US20250341526A1, “NOVEL DYES” (Quantum-Si Incorporated, priority 2024, published 2025).
Where two headings read alike, the source gives them in different places.

B1: PS395: ClpS amino acid recognition protein, SEQ ID NO: 23 (protein)
chain: MTVSQSKTQGAPAAQSATELEYEGLWRVVVLNDPVNLMSYVVLVFKKVFGFDETTARKHMLEVHEQGRSVVWSGMREKAEAYAFTLQQWHLTTVLEQDEVR
B2: PS390: ClpS amino acid recognition protein, SEQ ID NO: 18 (protein)
chain: MLSIAAVTEAPSKGVQTADPKTVRKPYPNYKVIVLNDDFNTFQHVSSCLLKYIPGMSEARAWELTNQVHFEGLAVVWVGPQEQAELYYAQLKNAGLTMAPPEPA
B3: PS393: ClpS amino acid recognition protein, SEQ ID NO: 21 (protein)
chain: MSDEDGEDGDENAVGIATRTRTRTKKPTPYRVLLLNDDYTPMEFVVLVLQRFFRMSIEDATRVMLQVHQKGVGVCGVFTYEVAETKVSQVIDFARQNQHPLQCTLEKA
B4: PS389: ClpS amino acid recognition protein, SEQ ID NO: 17 (protein)
chain: MLNSAAFKAASASPVIAPERSGQVTQKPYPTYKVIVLNDDFNTFQHVHDCLVKYIPGMTSDRAWQLTHQVHNDGQAIVWVGPQEQAELYHQQLSRAGLTMAPIEAA
B5: PS392: ClpS amino acid recognition protein, SEQ ID NO: 20 (protein)
chain: MSVEIIEKRSTVRKLAPRYRVLLHNDDFNPMEYVVQTLMATVPSLTQPQAVNVMMEAHTNGMGLVIVCALEHAEFYAETLNNHGLGSSIEPDD
B6: PS394: ClpS amino acid recognition protein, SEQ ID NO: 22 (protein)
chain: MAERRDTGDDEGTGLGIATKTRSKTKKPTPYRVLMLNDDYTPMEFVVLCLQRFFRMNMEEATRVMLHVHQKGVGVCGVFSYEVAETKVGQVIDFARANQHPLQCTLEKA
B7: PS368: ClpS amino acid recognition protein, SEQ ID NO: 1 (protein)
chain: MASAPSTTLDKSTQVVKKTYPNYKVIVLNDDLNTFDHVANCLIKYIPDMTTDRAWELTNQVHYQGQAIVWTGPQEQAELYHQQLRREGLTMAPLEAA
B8: Saccharomyces cerevisiae GID10: amino acid recognition protein, SEQ ID NO: 125 (protein, listed as Saccharomyces cerevisiae)
chain: MTSLNIMGRKFILERAKRNDNIEEIYTSAYVSLPSSTDTRLPHFKAKEEDCDVYEEGTNLVGKNAKYTYRSLGRHLDFLRPGLRFGGSQSSKYTYYTVEVKIDTVNLPLYKDSRSLDPHVTGTFTIKNLTPVLDKVVTLFEGYVINYNQFPLCSLHWPAEETLDPYMAQRESDCSHWKRFGHFGSDNWSLTERNFGQYNHESAEFMNQRYIYLKWKERFLLDDEEQENQMLDDNHHLEGASFEGFYYVCLDQLTGSVEGYYYHPACELFQKLELVPTNCDALNTYSSGFEIA
B9: PS391: ClpS amino acid recognition protein, SEQ ID NO: 19 (protein)
chain: MGQTVEKPRVEGPGTGLGGSWRVIVRNDDHNTFDHVARTLARFIPGVSLERGHEIAKVIHTTGRAVVYTGHKEAAEHYWQQLKGAGLTMAPLEQG
B10: PS501: amino acid recognition protein, SEQ ID NO: 129 (protein, listed as Amanita thiersii)
chain: MICGQIIGKGESCFRCRDCGLDESCVMCSQCFHATDHINHNVSFFVSQQPGGCCDCGDEEAWKKPMNCPYHPP

Tested on: amino acid at a terminal position of a polypeptide
Settings: inferred from literature and/or demonstrated by the inventors, cited from earlier work
[1] = Table 1, ClpS proteins, amino acid at terminal position
[2] = Table 2, amino acid at terminal position (phosphotyrosine also internal)

Molecule | Binding Pref. [1] | Binding Pref. [2]
B1 | F, Y, W, L | –
B2 | F, Y, L | –
B3 | F, Y, W, L | –
B4 | F, Y, L | –
B5 | F, Y, W | –
B6 | F, Y, W, L | –
B7 | F, Y, W, L | –
B8 | – | P, M, V
B9 | F, Y, W, L | –
B10 | – | K, R, H
